Some results are limits rather than exact numbers.

The series relates to Saccharomyces cerevisiae. In words: transcriptional activation domain activity (GFP:mCherry ratio, weighted mean of sorted bins, harmonized to initial dataset scale) (arbitrary fluorescence ratio units); higher = stronger transcriptional activation. To be noted: beta-estradiol 1 µM; induction time 4 h. The gist of the method:
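Protein tiles carrying barcodes and fused to an estradiol-inducible synthetic transcription factor were placed at the URA3 locus of yeast diploids with a GFP reporter. Following 4 hours at 30 °C in SC with 1 uM beta-estradiol, cells were sorted into 8 GFP:mCherry bins, barcodes were sequenced, and tiles with fewer than 50 reads were discarded. Activation activity is given as the read-weighted mean of bin median fluorescence, averaged across barcodes and linearly mapped to the initial dataset scale.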

As for “WIIPTPFGSHAFHPVDGYFQSVPYHLFIFIFPLHRVLYLTLFVLVNFWSIFIH”, the “transcriptional activation domain activity” value was found to be 61100.

Consider “TSLVVENGNGNGSGRGRKKRGRDGGGGGRGGGGGRGGGGEEDGLVGGAGAGGG”, for which the “transcriptional activation domain activity” value amounted to 25000.

“MVPFSYVWEFYFFLMSMGGLGFHIFGLGHIFLFTSHIISFFIIGYWCCLICTK”: the “transcriptional activation domain activity” value turned out to be 57200.

On to “SDGEESDAGAKERKRKKKRRAKDSESESSDEEEKRKKTKRSKSKSKRRSPSPS”, for which the “transcriptional activation domain activity” value was determined as 25700. For “KPDLYLDILKIIAYSLDDVKFRACQVLFHYYFVSLGHVVVAEALPKLGVTVEI” the value was 36400. In the case of “YQLASDRSADCGLLRLVLDAQTFGATAAVIVLDWARPWRFIKSLLRWMHVLST”, the “transcriptional activation domain activity” value was 42000. As to “TSSPSAHSSTNTNVVFVFGSEDKRVKEVGDALKVKLAVKGGGKGVKWSGKFTG”, the “transcriptional activation domain activity” value is 25400. As for “QSLENQTTETIDVSPDKHRLLIGRGGETRRAIESKFKVQLDIPKQTATGAARN”, the “transcriptional activation domain activity” value is 64100.

On to “CYFLLLLHLPCYRFLFLFLLWLLGQVSHFFLLSHHLIILFWGFVILYSYYIST”, for which the “transcriptional activation domain activity” value was 63000. Take “VPRLKSPVYCVCLGSIILYSICLVLLVIYRVALIRESDGVCLIGFARGGSLPL”: the “transcriptional activation domain activity” value is 31200.

As to “ESLREIGLTSVRDIITRHASEQAILTVVDFPLRVLAMIAQIRCGLWVRNGFVI”, the “transcriptional activation domain activity” value was 77800. With “MITVALYIIGRGFFSFFFIFCHFTILVFLFLAAYFFLFFSCPFLLLFYFFWFT”, the “transcriptional activation domain activity” value came out at 54200. For “MWLFLLMFYIVLWLRKAGAFISSSFSSFSVLSFSYLFLCGYLPFSFLFLTFSL” the value was 54200; for “YIAPCGSWTPYMNLMLGGTVCIFIGFDVFSPFSYRGFITNYFGLFWFCIMFIF”, 53600; for “ASDKQETSSQPEGGKEKEAAKEEKKPEPKKEEPKQESKPAPAPKQEKKPEPKK”, 32600.

Turning to “INSTIHNLLEVVLLPDLCGFCCFSMRFVVLLDLIGTLTLPVSAVYLVYLIYVI”, the “transcriptional activation domain activity” value was found to be 59000.

For the sequence “GTAIEGLVIRFYIRKYEDSNNNNLEQNKTGQVRVSSPRAYLRIVGYTWVLAWF”, the “transcriptional activation domain activity” value stood at 38700. For “KEEDEAPAPRKARGKAKKAIVEEEEAPESEVEAPEPKAKKGRGRKAAVKKVVS” the value was below 6570; for “PYIALIVLDVILIKLGSGRHIEYIQYVLTRATVKETEVLDFYAHIIYTTTLLI”, 28800. As for “PSIRRCPVSFGDIDMEAELACIQYIREVLLPELVPCAYILLSYILHLLHEVSL”, the “transcriptional activation domain activity” value was 77000. For “SHSGVSRSGKRDASRSTSASGLGRNNGNASASGNGSRKGKRRSEGAGGRGKRV” the value was 13500; for “SRLCLVSVGECLLLLSLVWGLLLLISLYLVLFFLHCVCMSGLFLCDLFELFVT”, 64800; for “MTIDVIHVTYFTFFFFIIVLIYAHLVIPYILDVELLTYFLNDAFKWNMLNMLF”, 50200.

For “DEDDDDDDNDDADADDEPARRPKKSKSSQKSRSKKPAAKRAKVNGTTPAAAHS”, the “transcriptional activation domain activity” value was 20000. For “MWLVVCIDGPVLSVLPRTILYLCVLLLLTLLASCSERSFAFARPLSSSCIFSY” the value was 42600; for “TLLYLYTFSFLFPPLLFILILLHLHHLSSSHLFFIHSIILSHNKLWPLLFLLS”, 53400. Turning to “KKNRHGKFAYSDRYNLSEYIIEQLSEYDDIDLVKPWHRKLMLLHPFVILWVFF”, the “transcriptional activation domain activity” value amounted to 60600. For the sequence “IPIKYNTAIKRHQHSTELPSSVKCGFCNDNTTCVCKELETDHRKSDDGVATEQ”, the “transcriptional activation domain activity” value stood at 39200. Consider “MCCAECCLSSLVSFVSFFSRSLHSLTIRGFFLFPGTFHVILFLFFRFFIFFFH”, for which the “transcriptional activation domain activity” value amounted to 47400. For “MVLVIQFYTVFFSFVYYFIFFSSSNLFSILCPPPPPPIIPIFCPLVGAFGFLF” the value was 42000; for “FFDDIPDTLESIRKHIDLFGNDFYLAHIYRTLRWWTKPTHVAVLGDLLGSQWI”, 70300. As to “VKKKGGSGGIDAGDIWGCNRRGSNFVEVRSMLAKEGGRLLVNVLRDMIDGTVR”, the “transcriptional activation domain activity” value amounted to 65900. As to “PEEKKEKAAEGEATKKEGEVGKKKGKKGDKKKEASGEQAPAAAAPAEEKKAEQ”, the “transcriptional activation domain activity” value was below 6570. With “MGFEVIFFFLLLGFFIQLLFILLIILLFLLFLVFLLFCYFVILFRLCACMMLY”, the “transcriptional activation domain activity” value stood at 47900. Regarding “MMRSAANMGLISQPSNLLLVVQPCPPLLLCVLFPPPLSSYCLLLSLSLLLFFF”, the “transcriptional activation domain activity” value worked out at 38500. For “FDQDIPQDSSLNTSYISNLPYFGVTPSENFDETWFFDQAIGLGWLDSAQFTLG” the value was 142000; for “VLSKKTIDKVLRLIRKLDWNDPQVVQALHKVFSKVWKIKFSHISLLAMLIYDL”, 92000; for “EATEPAEKPKRKRGRPPGSKNKKTLAAQGGTGEASAAEPPPKRPRGRPPKRKP”, 34600. For “MLFIYEVFPSFSHSPIHSPFISFPSSLPSLSLPESLCICLWIVLFLTFNFYTL” the value was 56900. For “MATLDEALDNEGGKRRRSHKKSRRGCGDCRRRRVKCSEENPRCQACVRRGVQC” the value was 67400; for “EEGDMDVDEEEGTPTKKRKLSKEEKKALKKEKKKAAKDAAAAVSDYWIVCDQS”, 45200; for “RRARAHAGMRTRARGGQRAEGVGGVQKARRQTAQGARGACRGREGRRAAGGRL”, 8470. “NLDFFDFENSFGDLWNMDEFYGDVAWDLSSDPPLDPLFIGELYSASGQYGDLQ”: the “transcriptional activation domain activity” value worked out at 159000.

Take “VHANQYYQLDVEIFKSSLDMELLGLLWNKYWINTLSQSPLISVSLFCYGHIFI”: the “transcriptional activation domain activity” value stood at 57800.

For “MSYGKRDEDAELGLVKVDRTQVFQEARLFNSSPIQPRKCRILLTKIALLLYTG”, the “transcriptional activation domain activity” value was determined as 24100.

On to “NNLLELITDIIIALDMNFVNCMTCVDDDEKALMTLRICEYFIDRLVRTIMVAT”, for which the “transcriptional activation domain activity” value turned out to be 51300. For “EKGGGRDGETAAVEGEKEVQNGDAQTEADGNASTDGGTKRRRKGKKAAAEADD” the value was 24100; for “MTSPPPPSITVSHLALVPFFRTPVSAYSLLFLLFFRLGLCLSCWLFLLFSFLF”, 65800. Regarding “MYWNYPGFIWPLGFPWFFFFFFFRSGSLLPRPCPVDTVFHFQFFFFFFFFFFF”, the “transcriptional activation domain activity” value was found to be 51300.

Take “KGRSRENSRQRGNEDRVARGRDESRSRKTGGREASEDRGRSISRQWTPKPAKR”: the “transcriptional activation domain activity” value came to 22600.

As for “YQKLLVDARQAAEMFFKMLHYELWTHLLERLLRLRQMCNHWSLCKKKGMENCR”, the “transcriptional activation domain activity” value was determined as 54300. For “KHYRRRLLQRDILKRKRWSIGLKTLVLLRDLGVFVHHHTVVKALQMQFIVLFG” the value was 57200; for “AARVSDYSMAQFRFLLKFLLVHGRWNYVRICKYTVGTFWKELLFYLTQALFQR”, 48200. In the case of “PMSDQHKSQLLPITSVRLRLKLIVHWIHGFKTQWWFRVFFFQKYLRSILFDPF”, the “transcriptional activation domain activity” value was 37700. Regarding “QGDTDADGNGHGTHCSGTIAGKKYGVAKKAHVYAVKVLRSNGSGTMADVIGGV”, the “transcriptional activation domain activity” value was found to be 59600.

Regarding “SQEESIDNENQKVKEEEIEISVNNIKTEVEKEELKKDNKKGKKVVNKKEIKEE”, the “transcriptional activation domain activity” value turned out to be 39900. For “QLTAQQLIENAIESGVVDLETLDLPPFLSLDGLPPASSSAAVAASEQIDICPS” the value was 133000; for “TFLGFFDFTCSSPSYVIHHLDITNLFVSPFLFFPSFPSIFIFCWNILILGLFE”, 57300. For “LPTSFLEYCFRLICLWKPHLIREYFKEWFIFPNVVGWKYILQTFFNILEHVHD” the value was 46600; for “AAATAEGAASSRQPSERERKREREREEERERGKEREREKERKQAAEASTSANE”, 58800; for “GWAFGTKNEDGFQLFDCTGEALGVILRLSHILRHVTTFWRLRTAVDLLLQAQC”, 58900. For “MIIASLVPGGGIGFFYFVFWSLLWLRLFLAFLSIMGSFLCLFTCYMPSFLFFS” the value was 33400; for “FYTLIVEEDQSLWLCLKWCFFDMLFMFGIPLLEIPWLEWSNGAAFLLFVLHAG”, 63300. “EQGQNLQGLLEFMCFEVGPMFLDLIIAFVYVYTLFDLYMSMILLFVGLAYVWI”: the “transcriptional activation domain activity” value amounted to 33200. For “HERLKLCNYQQAPDNIWCQYWFMGSFLVFFSNLDAVIDLPVMILLDLMPQICF” the value was 44100. For “CWWPFGIPVYMFFHAPETVHYSYFLFFFLSLSLPAMLNIYLVIFIVSWLKSVP” the value was 38200; for “LFLKIYMLNPLHMTRFADLLYQGAILNRVFQPYESHLQYLLQWMCDYNLYGCA”, 65100. Take “ALHHVAWWIIIFELFFTVGIIVALGLGGFGPHRGTVCRYLLYTTCSQACNSLY”: the “transcriptional activation domain activity” value was determined as 35200.

For the sequence “RGSVESDLIILAMTCTLDILMHLPRSVFYRRQLDLFLWLLRVIPSVKTTNSLN”, the “transcriptional activation domain activity” value was 41400. For “MSLFFLLFPHVFAFILFLLSSFYSLSPIHSVFYPSFSLFPLSSLFYLTFPFSL” the value was 59400; for “MFMGTLLLVFLHYDWAFFLDCCLWCFVISFCFCSVKFCLLVGCCILVLCNVAR”, 70200. “VGISLFLIACKLYLTVYYNELLISNPASAKSIYKILEYVNIMVYVSKAFGMYQ”: the “transcriptional activation domain activity” value is 62800.

“MPIPLRLPFPFCFWVRMGLLDVYYHTVGGLYGYVLGGGVVICWRWWCFSFFCL”: the “transcriptional activation domain activity” value came out at 55500. For “LIVMRDRVEIIMLLWPIINIAFVILVGYDSDVTKSIRRLRQKYWSSLSVMAST” the value was 68600.

The values are drawn from the supplement of paper PMC12636428.
